Measurements: article PMC6135941

Molecular target: 62 kDa active MMP-2
Assay: enzyme inhibition kinetics

**Q.** How did the Ki turn out when “TIMP-2-His6 Y90E expressed in HEK293H cells (from UniProt P16035 27-220) (natural protein)” was run?
**A.** The Ki was 0.154 nM.
